Measurements from PMC12325948, “14-3-3 binding maintains the Parkinson’s associated kinase LRRK2 in an inactive state” (Nature Communications, 2025).
Residue numbers refer to the chain shown, from its start. In names and notes the source's numbering stands. Values belong to the molecule of their own block, whether it stands above or below them.

Experiments:
[1] = biological target: endogenous 14-3-3 (detected with anti-pan-14-3-3) (UniProt P61981); assay: Co-IP
[2] = biological target: Full-length human LRRK2 (Uniprot Q5S007 with R85H mutation), N-terminal 3X-FLAG, purified (human) (UniProt Q5S007); assay: SEC + other: mass photometry; LRRK2 dimers isolated by gel filtration and confirmed by mass photometry
[3] = biological target: N-terminal His-tagged 14-3-3γ (Uniprot P61981) (UniProt P61981); assay: MST; conditions: parent: est. 210 nM, read off a plot
[4] = biological target: Flag-tagged LRRK2 R1728H expressed in HEK293FT cells (human) (UniProt Q5S007); assay: co-IP; HEK293FT cells transfected with WT or mutant Flag-tagged LRRK2, FLAG-M2 resin, elution with 3X-FLAG peptide, blot with anti-pan-14-3-3; ratio of endogenous 14-3-3 to LRRK2; in one panel cells treated with MLi-2 or Rebastinib
Chain of Flag-tagged LRRK2 R1728H expressed in HEK293FT cells (human) (Q5S007 whole entry R1728H): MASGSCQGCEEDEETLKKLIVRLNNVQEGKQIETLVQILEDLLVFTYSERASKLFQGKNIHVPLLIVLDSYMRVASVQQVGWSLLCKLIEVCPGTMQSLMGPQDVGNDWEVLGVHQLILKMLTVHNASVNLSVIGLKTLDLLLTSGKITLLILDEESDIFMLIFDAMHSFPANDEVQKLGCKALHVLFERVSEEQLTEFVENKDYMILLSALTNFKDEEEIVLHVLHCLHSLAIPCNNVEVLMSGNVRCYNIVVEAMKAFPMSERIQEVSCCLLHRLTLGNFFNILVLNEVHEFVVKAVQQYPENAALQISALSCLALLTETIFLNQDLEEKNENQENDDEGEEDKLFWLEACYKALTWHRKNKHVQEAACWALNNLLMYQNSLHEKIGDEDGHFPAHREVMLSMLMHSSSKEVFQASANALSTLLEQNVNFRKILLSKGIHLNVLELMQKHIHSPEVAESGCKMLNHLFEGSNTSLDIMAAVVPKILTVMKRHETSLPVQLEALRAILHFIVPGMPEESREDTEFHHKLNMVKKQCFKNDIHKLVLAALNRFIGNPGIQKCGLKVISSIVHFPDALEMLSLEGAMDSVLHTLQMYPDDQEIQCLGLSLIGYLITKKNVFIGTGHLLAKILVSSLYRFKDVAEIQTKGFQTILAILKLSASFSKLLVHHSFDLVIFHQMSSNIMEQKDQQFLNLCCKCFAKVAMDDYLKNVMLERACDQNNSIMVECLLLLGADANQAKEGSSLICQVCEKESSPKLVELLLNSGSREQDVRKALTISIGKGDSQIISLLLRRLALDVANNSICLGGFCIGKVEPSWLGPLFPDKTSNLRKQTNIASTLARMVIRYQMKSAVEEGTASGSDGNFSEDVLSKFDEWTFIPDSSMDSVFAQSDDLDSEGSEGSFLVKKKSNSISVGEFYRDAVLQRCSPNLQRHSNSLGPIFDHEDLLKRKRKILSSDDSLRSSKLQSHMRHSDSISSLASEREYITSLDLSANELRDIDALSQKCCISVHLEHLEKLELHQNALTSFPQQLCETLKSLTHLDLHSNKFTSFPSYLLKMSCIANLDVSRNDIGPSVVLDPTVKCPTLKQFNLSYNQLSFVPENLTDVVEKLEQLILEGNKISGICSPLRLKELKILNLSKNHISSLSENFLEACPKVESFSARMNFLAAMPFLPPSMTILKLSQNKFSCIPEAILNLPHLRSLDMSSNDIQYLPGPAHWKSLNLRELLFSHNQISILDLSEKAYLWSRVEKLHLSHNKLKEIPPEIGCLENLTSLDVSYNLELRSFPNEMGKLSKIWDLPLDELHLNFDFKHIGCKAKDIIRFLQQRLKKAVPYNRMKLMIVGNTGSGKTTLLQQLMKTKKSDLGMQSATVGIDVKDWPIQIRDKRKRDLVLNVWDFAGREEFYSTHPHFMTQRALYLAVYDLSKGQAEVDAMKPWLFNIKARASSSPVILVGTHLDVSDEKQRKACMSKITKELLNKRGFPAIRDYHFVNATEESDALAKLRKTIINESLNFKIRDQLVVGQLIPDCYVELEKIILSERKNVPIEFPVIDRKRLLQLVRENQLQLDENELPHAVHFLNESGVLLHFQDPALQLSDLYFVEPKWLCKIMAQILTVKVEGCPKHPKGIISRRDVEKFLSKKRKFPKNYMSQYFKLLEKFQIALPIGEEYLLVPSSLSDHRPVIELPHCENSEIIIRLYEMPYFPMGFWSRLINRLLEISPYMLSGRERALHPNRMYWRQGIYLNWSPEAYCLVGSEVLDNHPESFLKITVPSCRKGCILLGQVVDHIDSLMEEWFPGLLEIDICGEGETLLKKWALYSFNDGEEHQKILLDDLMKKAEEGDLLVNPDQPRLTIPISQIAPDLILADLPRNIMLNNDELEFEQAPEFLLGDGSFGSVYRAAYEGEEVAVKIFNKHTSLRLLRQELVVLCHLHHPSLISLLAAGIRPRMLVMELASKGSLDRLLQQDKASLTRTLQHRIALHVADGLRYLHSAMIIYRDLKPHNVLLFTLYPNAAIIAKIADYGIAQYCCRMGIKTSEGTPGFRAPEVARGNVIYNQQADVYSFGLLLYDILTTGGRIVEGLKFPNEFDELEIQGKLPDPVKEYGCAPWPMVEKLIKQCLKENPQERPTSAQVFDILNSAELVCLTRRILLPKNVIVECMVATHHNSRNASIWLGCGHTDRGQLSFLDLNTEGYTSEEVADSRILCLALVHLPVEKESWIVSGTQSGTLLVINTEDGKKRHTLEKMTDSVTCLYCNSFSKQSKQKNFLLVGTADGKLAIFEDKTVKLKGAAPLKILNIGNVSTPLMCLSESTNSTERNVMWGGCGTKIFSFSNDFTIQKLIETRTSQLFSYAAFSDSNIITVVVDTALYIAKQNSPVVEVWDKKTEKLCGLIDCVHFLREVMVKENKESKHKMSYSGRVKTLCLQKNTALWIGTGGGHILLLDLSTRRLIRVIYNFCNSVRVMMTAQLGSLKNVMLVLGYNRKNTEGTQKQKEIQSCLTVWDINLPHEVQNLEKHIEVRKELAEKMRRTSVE

[5] = biological target: Flag-tagged LRRK2 WT expressed in HEK293FT cells (human) (UniProt Q5S007); assay: as above
[6] = biological target: LRRK2 mutants at the secondary interface (COR residues) in the Co-IP of Fig. 2d; assay: as above
[7] = biological target: Full-length human LRRK2 (Uniprot Q5S007 with R85H mutation), N-terminal 3X-FLAG, purified, Q5S007; assay: MST; conditions: chain shown with the change; right graph; 14-3-3 Variants; parent: est. 210 nM; read off a plot
Chain of Full-length human LRRK2 (Uniprot Q5S007 with R85H mutation), N-terminal 3X-FLAG, purified, Q5S007 (Q5S007 other isoform, or with tags, fused parts or gaps R85H): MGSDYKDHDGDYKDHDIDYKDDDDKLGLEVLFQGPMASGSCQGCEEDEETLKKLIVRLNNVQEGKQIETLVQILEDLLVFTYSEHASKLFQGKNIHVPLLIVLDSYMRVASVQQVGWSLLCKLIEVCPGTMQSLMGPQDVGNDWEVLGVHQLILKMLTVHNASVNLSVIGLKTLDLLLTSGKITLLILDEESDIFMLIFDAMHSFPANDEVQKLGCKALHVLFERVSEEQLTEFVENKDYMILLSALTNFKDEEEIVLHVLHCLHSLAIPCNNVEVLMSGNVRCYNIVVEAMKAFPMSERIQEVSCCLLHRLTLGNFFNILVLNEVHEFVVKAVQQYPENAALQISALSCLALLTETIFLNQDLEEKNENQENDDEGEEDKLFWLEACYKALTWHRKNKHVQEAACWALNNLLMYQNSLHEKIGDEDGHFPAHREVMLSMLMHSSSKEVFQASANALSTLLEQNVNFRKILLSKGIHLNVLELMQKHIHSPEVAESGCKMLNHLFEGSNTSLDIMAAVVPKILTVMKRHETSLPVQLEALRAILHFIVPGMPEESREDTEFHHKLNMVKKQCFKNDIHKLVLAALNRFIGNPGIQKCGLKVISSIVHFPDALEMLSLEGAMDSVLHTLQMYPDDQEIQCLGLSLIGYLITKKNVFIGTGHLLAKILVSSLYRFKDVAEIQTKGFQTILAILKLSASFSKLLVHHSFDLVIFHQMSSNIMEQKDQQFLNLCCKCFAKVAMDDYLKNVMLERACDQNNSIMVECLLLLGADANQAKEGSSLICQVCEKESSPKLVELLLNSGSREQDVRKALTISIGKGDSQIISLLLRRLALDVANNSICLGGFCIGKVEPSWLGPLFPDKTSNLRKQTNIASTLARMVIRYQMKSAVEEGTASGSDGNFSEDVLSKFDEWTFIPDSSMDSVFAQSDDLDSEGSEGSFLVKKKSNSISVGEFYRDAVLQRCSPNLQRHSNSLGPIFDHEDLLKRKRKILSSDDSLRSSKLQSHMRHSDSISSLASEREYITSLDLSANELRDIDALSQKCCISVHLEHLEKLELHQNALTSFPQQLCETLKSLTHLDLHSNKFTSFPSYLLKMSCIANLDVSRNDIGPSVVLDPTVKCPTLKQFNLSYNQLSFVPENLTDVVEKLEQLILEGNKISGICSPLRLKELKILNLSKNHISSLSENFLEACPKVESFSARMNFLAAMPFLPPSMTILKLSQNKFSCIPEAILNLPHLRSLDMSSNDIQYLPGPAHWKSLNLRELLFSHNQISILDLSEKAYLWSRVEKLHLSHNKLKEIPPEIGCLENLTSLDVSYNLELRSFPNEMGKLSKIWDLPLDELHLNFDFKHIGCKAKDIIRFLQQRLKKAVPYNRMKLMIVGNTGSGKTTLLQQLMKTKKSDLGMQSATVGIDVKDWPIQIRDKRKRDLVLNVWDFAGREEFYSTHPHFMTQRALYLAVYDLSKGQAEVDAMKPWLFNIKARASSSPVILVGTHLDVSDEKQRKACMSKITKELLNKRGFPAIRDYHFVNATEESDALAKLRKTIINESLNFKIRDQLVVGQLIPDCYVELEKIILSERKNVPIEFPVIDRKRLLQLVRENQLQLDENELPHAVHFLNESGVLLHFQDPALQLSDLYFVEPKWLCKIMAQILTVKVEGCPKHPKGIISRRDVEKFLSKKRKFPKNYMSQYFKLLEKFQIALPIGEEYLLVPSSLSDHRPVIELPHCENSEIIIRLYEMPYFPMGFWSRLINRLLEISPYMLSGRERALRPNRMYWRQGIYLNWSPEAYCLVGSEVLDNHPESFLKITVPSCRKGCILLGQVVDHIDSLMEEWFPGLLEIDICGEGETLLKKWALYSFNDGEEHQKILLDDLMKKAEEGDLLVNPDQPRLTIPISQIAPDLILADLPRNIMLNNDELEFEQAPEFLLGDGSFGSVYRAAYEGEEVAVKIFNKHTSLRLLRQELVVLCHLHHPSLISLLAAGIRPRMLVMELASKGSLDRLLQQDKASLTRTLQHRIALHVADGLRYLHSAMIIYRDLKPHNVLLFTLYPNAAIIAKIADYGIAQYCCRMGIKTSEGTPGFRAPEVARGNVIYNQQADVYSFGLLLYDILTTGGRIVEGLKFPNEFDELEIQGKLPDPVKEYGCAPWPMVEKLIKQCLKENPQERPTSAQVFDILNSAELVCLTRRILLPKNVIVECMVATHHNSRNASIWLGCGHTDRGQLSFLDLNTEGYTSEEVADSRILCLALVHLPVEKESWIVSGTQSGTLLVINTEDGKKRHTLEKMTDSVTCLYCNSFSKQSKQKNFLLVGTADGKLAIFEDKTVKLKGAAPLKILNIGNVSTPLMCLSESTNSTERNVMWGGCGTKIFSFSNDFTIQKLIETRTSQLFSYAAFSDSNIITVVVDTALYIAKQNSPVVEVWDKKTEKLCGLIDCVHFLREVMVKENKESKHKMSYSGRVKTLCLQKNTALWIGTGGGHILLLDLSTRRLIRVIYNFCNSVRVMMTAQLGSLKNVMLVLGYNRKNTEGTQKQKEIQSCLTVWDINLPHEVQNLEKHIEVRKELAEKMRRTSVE

[8] = biological target: Full-length human LRRK2 (Uniprot Q5S007 with R85H mutation), N-terminal 3X-FLAG, purified (human) (UniProt Q5S007)
[9] = biological target: Purified LRRK2 mutated at the primary interaction residues S910/S935 (human) (UniProt Q5S007)
[10] = biological target: Full-length human LRRK2 (Uniprot Q5S007 with R85H mutation), N-terminal 3X-FLAG, purified (human) (UniProt Q5S007); assay: MST; as a3 with the type I kinase inhibitor MLi-2 at 2 uM
[11] = biological target: Full-length human LRRK2 (Uniprot Q5S007 with R85H mutation), N-terminal 3X-FLAG, purified (human) (UniProt Q5S007); assay: MST; LRRK2 labelled with RED-NHS 2nd generation at 40 nM, 14-3-3 titrated from a 485 µM stock in 1:2 dilutions, 25 °C for 1 h, 1:1 binding model
[12] = biological target: Purified LRRK2 mutants on the LRRK2 side of the COR:14-3-3_(2) interface (MST, Fig. 2e right); assay: as above
[13] = biological target: Full-length human LRRK2 (Uniprot Q5S007 with R85H mutation), N-terminal 3X-FLAG, purified (human) (UniProt Q5S007); assay: SEC-MALS; pre-formed dimeric LRRK2 at 130 nM without and with 14-3-3γ at 1 to 100 times that of LRRK2, Superose 6 Increase 15/150, gel filtration buffer
[14] = biological target: Full-length human LRRK2 (Uniprot Q5S007 with R85H mutation), N-terminal 3X-FLAG, purified (human) (UniProt Q5S007); assay: cryo-EM structure; LRRK2 monomer fraction at 50 mM NaCl with at least 60-fold molar excess of 14-3-3γ, cross-linked with 1 mM BS3, Superose 6; map at 3.96 Å, local refinement 3.87 Å
[15] = biological target: the molecule itself; assay: as above
[16] = biological target: Purified LRRK2 mutated at the secondary interaction residue L1727 (human), Q5S007
[17] = biological target: Purified LRRK2 mutated at the secondary interaction residue N1730 (human), Q5S007
[18] = biological target: Purified LRRK2 mutated at the secondary interaction residue R1728 (mutant with reduced inhibition) (human), Q5S007
[19] = biological target: Purified LRRK2 R1441G (human), Q5S007
Chain of Purified LRRK2 R1441G (human), Q5S007 (Q5S007 whole entry R1441G): as the sequence (Q5S007 whole entry R1728H) above, with R1441G, H1728R counted along it

[20] = biological target: Purified LRRK2 R1628P (human), Q5S007
Chain of Purified LRRK2 R1628P (human), Q5S007 (Q5S007 whole entry R1628P): as the sequence (Q5S007 whole entry R1728H) above, with R1628P, H1728R counted along it

[21] = biological target: Purified LRRK2 R1728H (human), Q5S007
[22] = left graph, Flag-tagged LRRK2 and endogenous 14-3-3, n = 3, parent: est. 1.0, read off a plot
[23] = in cells, n = 3, parent: est. 1.0, read off a plot
[24] = right graph, Flag-tagged LRRK2 and endogenous 14-3-3, n = 3, parent: est. 1.0, read off a plot

- ratio to parent [1, 22]: 0.07
Molecule: Flag-tagged LRRK2 WT expressed in HEK293FT cells, Q5S007 E1632A

- ratio to parent [1, 23]: 1.5
Molecule: Flag-tagged LRRK2 WT expressed in HEK293FT cells, Q5S007 G2019S

- ratio to parent [1, 22]: 0.11
Molecule: Flag-tagged LRRK2 WT expressed in HEK293FT cells, Q5S007 L1635A

- ratio to parent [1, 24]: 0.63
Molecule: Flag-tagged LRRK2 WT expressed in HEK293FT cells, Q5S007 L1727A

- ratio to parent [1, 24]: 0.18
Molecule: Flag-tagged LRRK2 WT expressed in HEK293FT cells, Q5S007 N1730A

- ratio to parent [1, 23]: 0.07
Molecule: Flag-tagged LRRK2 WT expressed in HEK293FT cells, Q5S007 R1441G

- ratio to parent [1, 23]: 1.6
Molecule: Flag-tagged LRRK2 WT expressed in HEK293FT cells, Q5S007 R1628P

- ratio to parent ([1]; right graph, Flag-tagged LRRK2 and endogenous 14-3-3, n = 3, marked ns against WT, parent: est. 1.0, read off a plot): 0.98
Molecule: Flag-tagged LRRK2 WT expressed in HEK293FT cells, Q5S007 R1728A

- ratio to parent [1, 23]: 0.02
- ratio to parent [1, 22]: 0.03
- ratio to parent [1, 24]: 0.01
Molecule: Flag-tagged LRRK2 WT expressed in HEK293FT cells, Q5S007 S910A; S935A

- ratio to parent [1, 22]: 0.54
Molecule: Flag-tagged LRRK2 WT expressed in HEK293FT cells, Q5S007 S1636A

- stoichiometry N [2]: 2
Molecule: Full-length human LRRK2 (Uniprot Q5S007 with R85H mutation), N-terminal 3X-FLAG, purified (from UniProt Q5S007 1-2527) (enzyme)

- Kd ([3]; right graph, LRRK2 Variants): 470 nM
Molecule: Full-length human LRRK2 (Uniprot Q5S007 with R85H mutation), N-terminal 3X-FLAG, purified, Q5S007 L1727A

- Kd ([3]; right graph, LRRK2 Variants): 560 nM
Molecule: Full-length human LRRK2 (Uniprot Q5S007 with R85H mutation), N-terminal 3X-FLAG, purified, Q5S007 R1728A

- Kd ([3]; left graph, bar labelled S910/S935A): 230000 nM
Molecule: Full-length human LRRK2 (Uniprot Q5S007 with R85H mutation), N-terminal 3X-FLAG, purified, Q5S007 S910A; S935A

- percent decrease in binding relative to WT [4]: 50%
- fold decrease in co-immunoprecipitated 14-3-3 after treatment of the cells with MLi-2 [5]: 7 fold
- fold decrease in co-immunoprecipitated 14-3-3 [6]: 2 to 13 fold
- percent reduction in binding against WT [6]: 40 to 90%
Molecule: endogenous 14-3-3 (detected with anti-pan-14-3-3) (from UniProt P61981 1-247) (natural protein)

- Kd [7]: 680 nM
B1: N-terminal His-tagged 14-3-3γ (Uniprot P61981), P61981 Y216A (protein)
chain: MVDREQLVQKARLAEQAERYDDMAAAMKNVTELNEPLSNEERNLLSVAYKNVVGARRSSWRVISSIEQKTSADGNEKKIEMVRAYREKIEKELEAVCQDVLSLLDNYLIKNCSETQYESKVFYLKMKGDYYRYLAEVATGEKRATVVESSEKAYSEAHEISKEHMQPTHPIRLGLALNYSVFYYEIQNAPEQACHLAKTAFDDAIAELDTLNEDSAKDSTLIMQLLRDNLTLWTSDQQDDDGGEGNN

- Kd [7]: 490 nM
B2: N-terminal His-tagged 14-3-3γ (Uniprot P61981), P61981 Q224A (protein)
chain: B1 chain with A216Y, Q224A

- Kd [7]: 640 nM
B3: N-terminal His-tagged 14-3-3γ (Uniprot P61981), P61981 R227A (protein)
chain: B1 chain with A216Y, R227A

- inhibition of Rab10 phosphorylation by LRRK2 in an in vitro kinase assay, 14-3-3 from 0 to 300 µM [8]: 50%
- inhibition of Rab10 phosphorylation by LRRK2 in an in vitro kinase assay, 14-3-3 at 300 µM [9]: 25%
- fold decrease in binding affinity with MLi-2 against no inhibitor [10]: 2 fold
- Kd [11]: 212 nM
- fold increase in KD against the wild-type pair [12]: 2 to 3 fold
- stoichiometry N (14-3-3γ dimer per LRRK2 dimer) [13]: 1
- stoichiometry N (14-3-3 dimer per LRRK2 monomer) [14]: 1
B4: N-terminal His-tagged 14-3-3γ (Uniprot P61981) (natural protein, human)
chain: B1 chain with A216Y
notes: 14-3-3γ, Uniprot P61981; A TEV site follows the His tag; no cleavage is described; also called 14-3-3 gamma; 14-3-3 dimer; source: E. coli BL21*(DE3), purified (Ni-NTA, Superdex 75)
- stoichiometry N [15]: 2

- inhibition of Rab10 phosphorylation by LRRK2 in an in vitro kinase assay, 14-3-3 at 300 µM [16]: 25%
- inhibition of Rab10 phosphorylation by LRRK2 in an in vitro kinase assay, 14-3-3 at 300 µM [17]: 25%
- inhibition of Rab10 phosphorylation by LRRK2 in an in vitro kinase assay, 14-3-3 at 300 µM [18]: 25%
- reduction of the 14-3-3 mediated inhibition of LRRK2 kinase activity [19]: 30%
- reduction of the inhibition of LRRK2 kinase activity by 14-3-3 compared to WT [20]: 20%
- reduction of the inhibition of LRRK2 kinase activity by 14-3-3 compared to WT [21]: 20%
B5: N-terminal His-tagged 14-3-3γ (Uniprot P61981), P61981 1-247 (natural protein)
chain: B1 chain with A216Y
